In the DeepSol protein solubility set:

Test: soluble on expression in E. coli; label from the status in PepcDB or PDB records
For “WTGEDSAEPNSDSAEWIRDMYAKVTEIWQEVMQRRDDDGTLHAACQVQPSATLDAAQPRVTGVVLFRQLAPRAKLDAFFALEGFPTEPNSSSRAIHVHQFGDLSQGCESTGPHYNPLAVPHPQHPGDFGNFAVRDGSLWRYRAGLAASLAGPHSIVGRAVVVHAGEDDLGRGGNQASVENGNAGRRLACCVVGVCGPGLWERQAREHSERKKRRRESECKAA”, the “soluble on expression in E. coli” value was “soluble”.
With “YEVKVKLADIQADPNSPLYSAKSFDELGLAPELLKGIYAMKFQKPSKIQERALPLLLHNPPRNMIAQSQSGTGKTAAFSLTMLTRVNPEDASPQAICLAPSRELARQTLEVVQEMGKFTKITSQLIVPDSFEKNKQINAQVIVGTPGTVLDLMRRKLMQLQKIKIFVLDEADNMLDQQGLGDQCIRVKRFLPKDTQLVLFSATFADAVRQYAKKIVPNANTLELQT” the “soluble on expression in E. coli” value was “soluble”.
With “YFKEKKIHPEAEMFDNRGFGVVAMMGLPLAGKDTYIKENFKNINVISLDDIREELNISSKRNSGKVAAIAISRAKQLLRRKESFIWNATNLRRENRQKLIRLCTAYGAKLKFIYLEVPYRELLSRNKMRSRYVPVEVINKMIRKMDMLEGEEIC” the “soluble on expression in E. coli” value was “not soluble”.
With “YKEFKLKRVYYSGYIPINHEDHALPAVGSAPPLLRENRLYQSDWLMRFYGFAADEIVNPQHPNLDLDVDPKLGWALRHPEQFPVDINRADYRMILRVPGIGVRSAKKIMHARRFGALRIDQLKRMGVAYSRAQHFIYCID” the “soluble on expression in E. coli” value was “not soluble”.
With “YLSKYRNETGRSPSFLVNIDSSLKSLAHVDVIYPVGDPIFIHIYERGKERRYKPIEPLLKDDEFEFMDAILDIIMSRASDYPPAENEEEQEKNIEDVYKKTVS” the “soluble on expression in E. coli” value was “soluble”.
For “YSFIGNPVFKKPFELDEMREYYLNFFERRGHGRIERYPVVARWRTDIYLTIASIADFQPFVTSGVAPPPANPLTISQPCIRLDDLDSVGRTGRHLTLFEMMAHHAFNYPGKEIYWKNETVAYCTELLNELGVKKEDIVYKEEPWAGGGNAGPCLEAIVGGLEVATLVFMNLEEHPEGDIEIKGARYRKMDNYIVDTGYGLERFVWASKGTPTVYDAIFPEVVDTIIDNSNVSFNREDERVRRI”, the “soluble on expression in E. coli” value was “not soluble”.
